Columns and labels:
[1] = biological target: CrtE from Synechococcus elongatus sp. PCC 7942 with a C-terminal His-tag (SeCrtE-His) (Synechococcus elongatus sp. PCC 7942); assay: crystal structure
SyCrtE = biological target: T1, SyCrtE (Synechocystis sp. PCC 6803, UniProt P72683); assay: LC-MS of prenyl pyrophosphate products; type: biochemical; details: 50 µM DMAPP, 100 µM IPP, 10 mM MgCl2, 25 mM MOPSO pH 7.2, 30 °C, 2 h
T1 sequence (P72683 1-302): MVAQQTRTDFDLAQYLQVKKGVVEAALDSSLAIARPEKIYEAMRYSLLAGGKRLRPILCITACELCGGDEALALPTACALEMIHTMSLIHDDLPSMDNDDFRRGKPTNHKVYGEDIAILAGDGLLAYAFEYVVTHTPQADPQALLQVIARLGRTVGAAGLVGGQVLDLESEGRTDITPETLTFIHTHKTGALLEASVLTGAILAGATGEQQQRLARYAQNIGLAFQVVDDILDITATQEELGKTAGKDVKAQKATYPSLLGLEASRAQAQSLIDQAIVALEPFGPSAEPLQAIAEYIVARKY

SeCrtE = biological target: T2, SeCrtE (Synechococcus elongatus, UniProt Q31Q61); assay: LC-MS of prenyl pyrophosphate products; type: biochemical; details: 50 µM DMAPP, 100 µM IPP, 10 mM MgCl2, 25 mM MOPSO pH 7.2, 30 °C, 2 h
T2 sequence (Q31Q61 1-301): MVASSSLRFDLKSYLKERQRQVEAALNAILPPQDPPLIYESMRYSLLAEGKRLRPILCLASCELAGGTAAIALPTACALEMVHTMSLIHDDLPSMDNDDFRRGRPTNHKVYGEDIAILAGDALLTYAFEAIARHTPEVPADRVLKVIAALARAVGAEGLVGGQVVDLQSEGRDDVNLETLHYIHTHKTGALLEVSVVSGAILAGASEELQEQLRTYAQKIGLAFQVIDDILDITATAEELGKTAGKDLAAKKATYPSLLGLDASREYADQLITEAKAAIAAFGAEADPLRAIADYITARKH

crystal structure = biological target: the molecule itself; assay: crystal structure

## CrtE from Synechococcus elongatus sp. PCC 7942 with a C-terminal His-tag (SeCrtE-His) (enzyme)
[1]
  stoichiometry N: 2

## CC(C)=CCC/C(C)=C/CC/C(C)=C/CC/C(C)=C/COP(=O)(O)OP(=O)(O)O [GGPP]
SyCrtE
  LC-MS of prenyl pyrophosphate products: Under identical experimental conditions, SyCrtE produced GGPP, GPP and FPP
SeCrtE
  LC-MS of prenyl pyrophosphate products: For SeCrtE, only GGPP formation was detected

B1: CrtE from Synechocystis sp. PCC 6803 with a C-terminal His-tag (SyCrtE-His) (enzyme)
chain: MVAQQTRTDFDLAQYLQVKKGVVEAALDSSLAIARPEKIYEAMRYSLLAGGKRLRPILCITACELCGGDEALALPTACALEMIHTMSLIHDDLPSMDNDDFRRGKPTNHKVYGEDIAILAGDGLLAYAFEYVVTHTPQADPQALLQVIARLGRTVGAAGLVGGQVLDLESEGRTDITPETLTFIHTHKTGALLEASVLTGAILAGATGEQQQRLARYAQNIGLAFQVVDDILDITATQEELGKTAGKDVKAQKATYPSLLGLEASRAQAQSLIDQAIVALEPFGPSAEPLQAIAEYIVARKY
Crystal structure
  stoichiometry N: 2

From PMC9796789 (The Febs Journal, 2022)
